The values below come from the DeepSol protein solubility set.

A short description of this series: soluble on expression in E. coli; label from the status in PepcDB or PDB records.
Consider “MSLLITAGVIALGFNFKRFQNEYDWLTLKPEQKLNVPLVNQLPDLPNGCEVTSLAMLLKYYDINVSKLELSSNIKHVSSFVGNNYRGNPHVGFVGYMSIKNAGWCVYNEPLYNVARKYTKRIRNYTGNDFVQVLKLVSKRHPVVIITTLKFDRVNDMQTWSTKQGKVHVTPSSHACVITGYNKKKGIVYVNDPYGVKNKKVSLKKIEASYNQQGKQALYIEEGHHHHHH”, for which the “soluble on expression in E. coli” value is recorded as “soluble”.
The entry for “MNKFSLFFALTATLMTITESAVPTASISAHVLDISGGSPAGGVQILAYIQQNDDWTKIGSEFTQDNGRVDWVSPDFTLIPGTYRLVYITEPYYKAKNVESFYPYVEVVFNIRDATQHYHVPLTLSPWGYSTYRGS” is “not soluble”; for “MPTLTARSVIPPYMLRRIIEHGSLPQRDCALHTLNHVQSLLGNKPLRAPGAKTSTGGEVIRDIYDAENSTQLPGKQVRNEGQASNHDVAVDEAYDYLGVTYDFFWQAFKRNSLDNQGLPLTGSVHYGKEYQNAFWNGQQMVFGDGDGEIFNRFTIAIDVVGHALAHGVTESEAGLIYFQQAGALNESLSDVFGSLVKQFHLKQTADKADWLIGEGLLAKGINGKGLRSMSAPGTAYDDPLLGKDPQPASMKDYIQTKEDNGGVHLNSGIPNRAFYLAATALGGYAWEKAGYIWYDTLCDKALPQDADFATFARTTVKHAEQRFDSKVAQKVQQAWHQVGVA” it is “soluble”; for “MGSDKIHHHHHHLDNSTSTATIDPPLRLGLAMWSQNQWQQTVYGNSQAHRLARYAEIFNTVEGNTTFYATPSLQNVQNWYAATHDEFKFTFKLPKHITHELQLQHAGPALQQFFSIMEPLINRTGVWKIQLPASFGPQSLPQLAQFLTQVPQGLTYGVEVRNSAFFAKGEAEQALNRLLIDNNCNRIIMDTRPVFAAAPTTAAVIDAHQKKPKVPVHAIATAHNPVVRFIGHPQAEANIHFFQNWLKQLPLWIAQNKQPYLFIHTPDNHNAPQLAVDLYRLLQQQLAQSTSALTDINLLPQQQHTTTQMGFDL” it is “not soluble”.
Turning to “AISGAKKYFYMQTPYFLPTEQILGAMQTAALAGVDIRLMLPEHADNRVTHLGSCSYLADVLRAGVKVYFYKKGFLHSKLMVSDDMLSTVGSTNLDFRSFEHNFEVNAFMYDMETALQMREIFLQDQRESTQIFLKSWEKRSSRQKAMESVVRLLAPLL”, the “soluble on expression in E. coli” value is recorded as “not soluble”.
The entry for “GSHVSKREDGRLDHELRPVIITRGFTENPAGSVLIEFGHTKVLCTASVTEGVPRWRKATGLGWLTAEYAMLPSATHSRSDRESVRGRLSGRTQEISRLIGRSLRACIDLAALGENTIAIDCDVLQADGGTRTAAITGAYVALADAVTYLSAAGKLSDPRPLSCAIAAVSVGVVDGRIRVDLPYEEDSRAEVDMNVVATDTGTLVEIQGTGEGATFARSTLDKLLDMALGACDTLFAAQRDALALPYPGVLPQGPPPPKAFGT” is “soluble”; for “MQEKYNFGKVSSQHKNYSKIETMLRPKGFDKLDHYFRTELDIDLTDETIELLLNSVKAAFGKLFYGAEQRARWNGRDFIALADLNITKALEEHIKNFQKIEQDMGVDELLEYIAFIPPVEMNVGEDLKSEYRNIMGGLLLMHADVIKKATGERKPSREAMEFVAQIVDKVF” it is “soluble”; for “MRHDTRLSRVLHILIHMEKHEGAATSENIAAMLQTNPVVVRRTMAGLREHGYVSSEKGHGGGWVLAQPLTEITLLDIYRALGAPELFSIGLAGDNPNCVIEQAVNAALFDAMNEAENILLSRFGSITLSTLAEESIDRWSKLSNCPSAMEQL” it is “not soluble”.
The entry for “MSLARRVGIYTRISRDDEGDALGVARQHRDCERLADLRSWQAVKVYEDNDVSAYKRHVVREQFELMLSDLGAGLIDGIVAYDLDRLARQPRDLERLIEIFDERPRLEFATVTNDVNLGTPDGRTMSRIMVAFANKSSHDASRRIKRKHLELAQQGKDSGGPAPYGWLKEDRSKVDPKAAAAIREAQREILAGVRIGTIRTRWQEQGLGNPRAGTKRMAHHHVEHILTSPRLVGYRTYHGEVLNDEDGRPVMGEWEAINTLEEWEAVCAAVAERKQKQPGRSLARKYMLSGIARCGLCKTKIRGQINQRWQPGSKATKFTYQCSVVNGGCGKVGRVGEPVDRLIAELALEEQRARAAATTVPIDQRWSRNAELEQVNDDITQLVNAERSKQITVTTLLQLLPGKERQRDELKLERARFYKELKQSEAKGDAANLTLDEFFGLPIERQQEIVLHRLSAVIIHPAGKGRRRFDPSLIEPVWREGHHHHHH” is “soluble”.
The entry for “MARGMNHVYLIGALARDPELRYTGNGMAVFEATVAGEDRVIGNDGRERNLPWYHRVSILGKPAEWQAERNLKGGDAVVVEGTLEYRQWEAPEGGKRSAVNVKALRMEQLGTQPELIQDAGGGVRMSGAMNEVLVLGNVTRDPEIRYTPAGDAVLSLSIAVNENYQDRQGQRQEKVHYIDATLWRDLAENMKELRKGDPVMIMGRLVNEGWTDKDGNKRNSTRVEATRVEALARGAGNANSGYAAATPAAPRTQTASSAARPTSGGYQSQPSRAANTGSRSGGLDIDQGLDDFPPEEDDLPF” is “soluble”.
Take “MTARPDTAIVLAAGLGKRMRPITDTIPKPLVRIAGKTLLDWGLDSLAAAGVAKAVVNVHYLPEQIVAHVAARSAPRIVISDESDRLLDSAGGIVKALPELGEQPFYILNADTFWIDHGPLNLGRLALAWDAAKMDILLMLADLHQATGHCGSTDFLVAPDGALRRSKGDPAGLIYAGAAIIHPRLFKDASAEPHSLNAYFDKAIAAGRLFGMPMHGHWITVGTPDAIPLAEEAVAGALAEMQLEHHHHHH”: the “soluble on expression in E. coli” value is “not soluble”.
The entry for “MAVSLFKQLQIVWDYHLVNQEIRKSDAIFVLCSYDLRVAEHAAQLYLDGYAPLLIFSGAQGRATEGLFTLSEAETFANVAKDMGVPSSAIIVETKATNTGENIFFTQALLKERNISVSSLILVQKPYMERRLLATFLKNWNDIEFCISSPNISFINYPTDEITFDHIASIILGELHRLKVYPTLGYQEAQEIPDEVWQAFENLTQLGFDEYLLTNDNLEHHHHHH” is “not soluble”; for “MLTRLNRSFVQAARSMYIQVQETPNPLSLKFLPGQQLLPDASKTYDFSSAATAKQSPLAIKLLRVDGVKRVFFGEDFVTVTKSDETVDWALLRPEIFSTIADHIQTGKPVINEAATVSDQVEEDDEVVMMIKEILETRIRPMVQEDGGDITYVGFDDGVVKLKMQGSCTGCPSSGVTLKNGIENMLTFYVPEVKEVIEVKDESDDLVEQELKKFEQSKGIKD” it is “not soluble”; for “MGSDKIHHHHHHEHNRSAVTTEGGYYDTEKGFESLINSCYTPLRFWGGKSAAMAFSETGTDILAPGGGCDYPAIVSYQNDFDGTNPISKEYYDRFYKAINFCNTAIYHVKNVPFSDKTLTSKREAEVRFLRAYYYWILVETFGDTYYTDQPSESIVMAPRKTSVAEIYTHIFEDLDFCMDSRLSVAQADGGRVTMWAAKALKARLLLTRASELNDKALYEQAYTLAKEVIDNGPFELSKDFASVFDMENSDGNGNKEVIWYIDYSSTNQLYNQEMDNDIIRSGGNHTHLIFCMKYDDQPGMVRSIEYGRPFNHYMPTRYLLDCYDENIDQRFEVTFRSLWKANGGKTGDNYPYMVQGDTAIWITKDVVPQVKRQWAKGRYQILDRTDIYHEDGSVKSQKQCMPISKFEDPTRATVNEDRGTRDAFIIRVAEMYLIVAEAGAKAGKADALAYMNILRAQRAKAGKEEAMKVAQSDIEDIDFILDERARELVGEQLRWFDLKRMGSEIFIRRIKSGNPDAGKNVKAYHMLRPFPQTLLDAITNKDEFLQNEGYK” it is “not soluble”.
The entry for “MQRIIKNNEVIDETWHLLPKDTTLDSLSNCDDLIVPLALWREHAHALKARDGGLGVWLDSDEEAEEIGEDVDQFQVIALNFPAFTDGRSFSNARLLRDRYGFKGELRAIGDVLRDQLFYMRRCGFDAFAVRADKDPYDALEGLKDFSVTYQAATDEPLPLFRRR” is “not soluble”; for “MGSDAFDEMDEIWALYADDGAQALDAMEASLLALQAGEDAAAHVGPLFRAVHTFKGNSRVLGLSVVESRAHLCEDLIGLVRDAGVPMDGEIVEILLFASDTLRAMLEETAASRADVEGTGSEALMDQLRSKIARCSRSHHHHHH” it is “soluble”.
The entry for “MKPLAQLLLFLLQFQKGNLVSQSSSTPLMVNGVLGESVTLPLEFPAGERIQFITWLCNGTSFAFLEPYEGKSPKIYVTHPKWQKRLSFTQSYSPQLSNLEMENIGFYSAQIATETSAKLSSYTLRIFKQLPRPQVRVDSIISENGICNAILRCSVEEGGETITYEWTSMGPGAAVSHVGSVLYGSWSLHDLDWIYTCTALNPVSYSNSTLTLAAQLCASSKAAEGTYCPVKWIFLGNRLLLLVFLGVLRTWHIQAQVLSKPLRPNSG” is “not soluble”; for “MSKPGRTILASKVAETFNTEIINNVEEYKKTHNGQGPLLVGFLANNDPAAKMYATWTQKTSESMGFRYDLRVIEDKDFLEEAIIQANGDDSVNGIMVYFPVFGNAQDQYLQQVVCKEKDVEGLNHVYYQNLYHNVRYLDKENRLKSILPCTPLAIVKILEFLKIYNNLLPEGNRLYGKKCIVINRSEIVGRPLAALLANDGATVYSVDVNNIQKFTRGESLKLNKHHVEDLGEYSEDLLKKCSLDSDVVITGVPSENYKFPTEYIKEGAVCINFACTKNFSDDVKEKASLYVPMTGKVTIAMLLRNMLRLVRNVELSKEK” it is “soluble”.
Take “MKNIVIVGGGVAGTITANYLAMKLREEIREKNVSITLISDREKQLYEPGLLYLIFNRMEESEILKDVKYLLDPLIELKIARATKIDAEKSRVELENGEVVNYDYLVIATGSRVAPEEMPGLVDGGHWFYNLDGAKRLREELARFKKGKVVVSVMGIPHKCPVAPIEVTFMLHEFFKIHGVRKDVELLYTYPINRVFTMEEVSDLVQKMFDERGINYKTFFNPVSIDPEKKVIETLEGEEEPYDLLIAIPPHKGSQVIIDSGLGDRDGWVPTDRYTLKAEGLENVYVVGDATNLPVSKAGSVAHFEAEVVAENIAAEIKGLPPTARYFGKAMCFIETGFSEATYIWFDYETPPKFVKPNKFIHWMKLAYNRMYWLTARGMLLEHHHHHH”: the “soluble on expression in E. coli” value is “soluble”.
The entry for “MYFVDRSKIEKTLGFFEHQLALFDSQTDWQSEIGELALQRIGHLLIECILDTGNDMIDGFIMRDPGSYDDIMDILVDEKVVTEKEGDELKKLIAYRKTLVQQYLLADSGELYRLIKAHQTALQDFPKRIRSYLETELGPVSAFKLEHHHHHH” is “soluble”.
The entry for “KVVAKGLGLSKAYVGQKSSFTVDCSKAGNNMLLVGVHGPRTPCEEILVKHVGSRLYSVSYLLKDKGEYTLVVKWGHEHIPGSPYRVVVP” is “soluble”; for “MSLPRKIAYEIPKNWARSNHWLMKTIVGTTFEIEGLENIPETGCIFAPKHQSFWDTYALLPNLPDPVYILKRELLWIPLFGWYAMKQRMIPVNRAARGKVMLKVMERAKEEMAAGRELIIYPEGTRRPPGAEPEYRYGIARLYRDLQVPVIPVAMHPGLFWPRRSTMRYPGHFKVRILPAIEPGLDPDVFFKRLIEVTEKASDELLLETARNNPHLPLPPTAVKRIAELQGKETTADEGHHHHHH” it is “not soluble”.
The entry for “MAVGSVATLATEPGEDAFRKLFRFYRQSRPGTADLEGVIDFSAAHAARGKGPGAQKVIKSQLNVSSVSEQNAYRAGLQPVSKWQAYGLKGYPGFIFIPNPFLPGYQWHWVKQCLKLYSQKPNVCNLDKHMSKEETQDLWEQSKEFLRYKEATKRRPRSLLEKLRWVTVGYHYNWDSKKYSADHYTPFPSDLGFLSEQVAAACGFEDFRAEAGILNYYRLDSTLGIHVDRSELDHSKPLLSFSFGQSAIFLLGGLQRDEAPTAMFMHSGDIMIMSGFSRLLNHAVPRVLPNPEGEGLPHCLEAPLPAVLPRDSMVEPCSMEDWQVCASYLKTARVNMTVRQVLATDQNFPLEPIEDEKRDISTEGFCHLDDQNSEVKRARINPHSLEHHHHHH” is “soluble”.
